For two substances, stoichiometry N results are on record in doi:10.1101/2021.04.19.440493.

In assay [1] the target is α-domain of Ag43 from UPEC UTI89 (α^43_UTI89) (E. coli O18:K1:H7 UTI89 (UPEC)). As to the kind of experiment: small-angle X-ray scattering.
For assay [2] the target is unchanged. As to the kind of experiment: AUC.
For assay [3], the target named is α-domain of Ag43a from UPEC CFT073 (α^43a) (E. coli CFT073 (UPEC)). As to the kind of experiment: small-angle X-ray scattering.
Assay [4] has the same target. Description: AUC.

As usually defined, the stoichiometry N is the number of molecules, sites or subunits per partner or assembly.

For “α-domain of Ag43 from UPEC UTI89 (α^43_UTI89) (domain or fragment)”, the stoichiometry N in assay [1] and in assay [2] was 2 each time.

Consider “α-domain of Ag43a from UPEC CFT073 (α^43a) (domain or fragment)”, for which the stoichiometry N in assay [3] and in assay [4] was 2 each time.
